Measured values as given in paper PMC10786891, “Massively parallel profiling of RNA-targeting CRISPR-Cas13d”.

Biological target: T1, EsCas13d, nuclease-dead (Eubacterium siraeum, UniProt B0MS50, R295A;H300A;R849A;H854A)
T1 sequence: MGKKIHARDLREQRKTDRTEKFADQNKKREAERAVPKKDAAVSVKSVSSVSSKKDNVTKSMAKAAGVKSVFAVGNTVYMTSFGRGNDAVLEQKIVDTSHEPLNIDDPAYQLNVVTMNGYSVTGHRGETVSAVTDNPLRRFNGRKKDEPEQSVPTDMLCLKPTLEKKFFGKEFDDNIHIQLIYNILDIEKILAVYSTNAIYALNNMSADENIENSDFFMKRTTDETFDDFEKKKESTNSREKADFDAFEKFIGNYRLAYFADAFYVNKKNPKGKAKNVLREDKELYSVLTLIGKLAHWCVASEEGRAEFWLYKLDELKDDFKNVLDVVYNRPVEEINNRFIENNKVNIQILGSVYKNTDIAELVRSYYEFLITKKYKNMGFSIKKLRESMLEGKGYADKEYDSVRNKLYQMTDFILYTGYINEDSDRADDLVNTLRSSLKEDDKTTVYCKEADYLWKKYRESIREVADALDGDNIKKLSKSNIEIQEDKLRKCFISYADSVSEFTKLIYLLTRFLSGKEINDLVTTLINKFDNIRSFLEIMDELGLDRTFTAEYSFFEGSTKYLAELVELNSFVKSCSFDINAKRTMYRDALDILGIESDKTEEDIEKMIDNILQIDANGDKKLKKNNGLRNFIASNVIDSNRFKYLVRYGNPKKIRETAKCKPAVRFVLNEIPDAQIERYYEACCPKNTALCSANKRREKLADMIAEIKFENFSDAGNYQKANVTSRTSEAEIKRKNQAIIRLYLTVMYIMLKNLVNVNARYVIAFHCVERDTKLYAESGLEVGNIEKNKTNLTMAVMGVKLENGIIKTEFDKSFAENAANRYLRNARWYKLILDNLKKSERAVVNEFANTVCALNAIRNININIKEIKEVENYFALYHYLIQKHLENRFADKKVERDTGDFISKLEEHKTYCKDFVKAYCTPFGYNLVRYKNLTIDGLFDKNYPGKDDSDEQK
Experiment: crRNA (strand 1, pre-loaded); Mg2+; 40 mM Tris-HCl pH 7.5, 150 mM NaCl, 6 mM MgCl2, 1 mM DTT, 0.1% Tween-20, 0.2 mg/ml BSA; 25 C; 10 min per concentration, then washed
Details: tags: His6-TwinStrep-SUMO cleaved; N-terminal SNAP kept (SNAP-Surface 488); label: 3' end held by stalled T7 RNA polymerase

B1: target 1 C6G,A14U (mixed)
RNA 1: CACCCGUGCAAAAAUGCAGGGGUCUAAAACUGAGCGGAUAACCUCUCUAUGG
RNA 2: GGGAAUGGAUCCACAUCUACGAAUUCGUACCAUAGAGUGGUUAUCGGCUCACCGAGAUCGGAAGAGCACACGU
Kd: 41 ± 14 nM

B2: target 1 insU 3' of 20,insA 3' of 17 (mixed)
RNA 1: CACCCGUGCAAAAAUGCAGGGGUCUAAAACUGAGCGGAUAACCUCUCUAUGG
RNA 2: GGGAAUGGAUCCACAUCUACGAAUUCGUACCAUUAGAAGAGGUUAUCCGCUCACCGAGAUCGGAAGAGCACACGU
Kd: 27.3 ± 2.4 nM

B3: target 1 insC 3' of 22,insU 3' of 4 (mixed)
RNA 1: CACCCGUGCAAAAAUGCAGGGGUCUAAAACUGAGCGGAUAACCUCUCUAUGG
RNA 2: GGGAAUGGAUCCACAUCUACGAAUUCGUACCCAUAGAGAGGUUAUCCGCUUCACCGAGAUCGGAAGAGCACACGU
Kd: 15.1 ± 1.6 nM

B4: target 2 MT 5'PFS GUC 3'PFS CCG (mixed)
RNA 1: CACCCGUGCAAAAUUGCAGGGGUCUAAAACCUUCUCCAAAUUGUUUCAUCCU
RNA 2: GGGAAUGGAUCCACAUCUACGAAUUCGUCAGGAUGAAACAAUUUGGAGAAGCCGAGAUCGGAAGAGCACACGU
Kd: 14.9 ± 1 nM

B5: target 2 MT 5'PFS GAG 3'PFS AUC (mixed)
RNA 1: CACCCGUGCAAAAUUGCAGGGGUCUAAAACCUUCUCCAAAUUGUUUCAUCCU
RNA 2: GGGAAUGGAUCCACAUCUACGAAUUCGAGAGGAUGAAACAAUUUGGAGAAGAUCAGAUCGGAAGAGCACACGU
Kd: 9.9 ± 1.4 nM

B6: target 2 MT 5'PFS AUA 3'PFS AGU (mixed)
RNA 1: CACCCGUGCAAAAUUGCAGGGGUCUAAAACCUUCUCCAAAUUGUUUCAUCCU
RNA 2: GGGAAUGGAUCCACAUCUACGAAUUCAUAAGGAUGAAACAAUUUGGAGAAGAGUAGAUCGGAAGAGCACACGU
Kd: 26 ± 6 nM

B7: target 2 MT 5'PFS GCA 3'PFS CAG (mixed)
RNA 1: CACCCGUGCAAAAUUGCAGGGGUCUAAAACCUUCUCCAAAUUGUUUCAUCCU
RNA 2: GGGAAUGGAUCCACAUCUACGAAUUCGCAAGGAUGAAACAAUUUGGAGAAGCAGAGAUCGGAAGAGCACACGU
Kd: 7.9 ± 1.5 nM

B8: target 2 MT 5'PFS AGA 3'PFS CUG (mixed)
RNA 1: CACCCGUGCAAAAUUGCAGGGGUCUAAAACCUUCUCCAAAUUGUUUCAUCCU
RNA 2: GGGAAUGGAUCCACAUCUACGAAUUCAGAAGGAUGAAACAAUUUGGAGAAGCUGAGAUCGGAAGAGCACACGU
Kd: 5.9 ± 1.1 nM

B9: target 2 MT 5'PFS UGU 3'PFS AGU (mixed)
RNA 1: CACCCGUGCAAAAUUGCAGGGGUCUAAAACCUUCUCCAAAUUGUUUCAUCCU
RNA 2: GGGAAUGGAUCCACAUCUACGAAUUCUGUAGGAUGAAACAAUUUGGAGAAGAGUAGAUCGGAAGAGCACACGU
Kd: 14.8 ± 2.4 nM

B10: target 2 MT 5'PFS GUG 3'PFS CAA (mixed)
RNA 1: CACCCGUGCAAAAUUGCAGGGGUCUAAAACCUUCUCCAAAUUGUUUCAUCCU
RNA 2: GGGAAUGGAUCCACAUCUACGAAUUCGUGAGGAUGAAACAAUUUGGAGAAGCAAAGAUCGGAAGAGCACACGU
Kd: 6.8 ± 0.6 nM

B11: target 2 MT 5'PFS CUG 3'PFS CGU (mixed)
RNA 1: CACCCGUGCAAAAUUGCAGGGGUCUAAAACCUUCUCCAAAUUGUUUCAUCCU
RNA 2: GGGAAUGGAUCCACAUCUACGAAUUCCUGAGGAUGAAACAAUUUGGAGAAGCGUAGAUCGGAAGAGCACACGU
Kd: 3.9 ± 0.6 nM

B12: target 2 MT 5'PFS UGU 3'PFS AGC (mixed)
RNA 1: CACCCGUGCAAAAUUGCAGGGGUCUAAAACCUUCUCCAAAUUGUUUCAUCCU
RNA 2: GGGAAUGGAUCCACAUCUACGAAUUCUGUAGGAUGAAACAAUUUGGAGAAGAGCAGAUCGGAAGAGCACACGU
Kd: 12.5 ± 2.1 nM

B13: target 2 MT 5'PFS CGA 3'PFS UGC (mixed)
RNA 1: CACCCGUGCAAAAUUGCAGGGGUCUAAAACCUUCUCCAAAUUGUUUCAUCCU
RNA 2: GGGAAUGGAUCCACAUCUACGAAUUCCGAAGGAUGAAACAAUUUGGAGAAGUGCAGAUCGGAAGAGCACACGU
Kd: 6.8 ± 1.5 nM

B14: target 2 MT 5'PFS AGA 3'PFS CUU (mixed)
RNA 1: CACCCGUGCAAAAUUGCAGGGGUCUAAAACCUUCUCCAAAUUGUUUCAUCCU
RNA 2: GGGAAUGGAUCCACAUCUACGAAUUCAGAAGGAUGAAACAAUUUGGAGAAGCUUAGAUCGGAAGAGCACACGU
Kd: 8.4 ± 1.2 nM

B15: target 2 MT 5'PFS AGA 3'PFS CUA (mixed)
RNA 1: CACCCGUGCAAAAUUGCAGGGGUCUAAAACCUUCUCCAAAUUGUUUCAUCCU
RNA 2: GGGAAUGGAUCCACAUCUACGAAUUCAGAAGGAUGAAACAAUUUGGAGAAGCUAAGAUCGGAAGAGCACACGU
Kd: 7.6 ± 1.4 nM

B16: target 2 MT 5'PFS CUG 3'PFS CGG (mixed)
RNA 1: CACCCGUGCAAAAUUGCAGGGGUCUAAAACCUUCUCCAAAUUGUUUCAUCCU
RNA 2: GGGAAUGGAUCCACAUCUACGAAUUCCUGAGGAUGAAACAAUUUGGAGAAGCGGAGAUCGGAAGAGCACACGU
Kd: 2.31 ± 0.31 nM

B17: target 2 MT 5'PFS CUG 3'PFS CGA (mixed)
RNA 1: CACCCGUGCAAAAUUGCAGGGGUCUAAAACCUUCUCCAAAUUGUUUCAUCCU
RNA 2: GGGAAUGGAUCCACAUCUACGAAUUCCUGAGGAUGAAACAAUUUGGAGAAGCGAAGAUCGGAAGAGCACACGU
Kd: 3.4 ± 0.6 nM

B18: target 2 MT 5'PFS GAC 3'PFS CUC (mixed)
RNA 1: CACCCGUGCAAAAUUGCAGGGGUCUAAAACCUUCUCCAAAUUGUUUCAUCCU
RNA 2: GGGAAUGGAUCCACAUCUACGAAUUCGACAGGAUGAAACAAUUUGGAGAAGCUCAGAUCGGAAGAGCACACGU
Kd: 12.1 ± 1.3 nM

B19: target 2 MT 5'PFS AUA 3'PFS AGG (mixed)
RNA 1: CACCCGUGCAAAAUUGCAGGGGUCUAAAACCUUCUCCAAAUUGUUUCAUCCU
RNA 2: GGGAAUGGAUCCACAUCUACGAAUUCAUAAGGAUGAAACAAUUUGGAGAAGAGGAGAUCGGAAGAGCACACGU
Kd: 7.6 ± 1.1 nM

B20: target 2 MT 5'PFS GAG 3'PFS AUU (mixed)
RNA 1: CACCCGUGCAAAAUUGCAGGGGUCUAAAACCUUCUCCAAAUUGUUUCAUCCU
RNA 2: GGGAAUGGAUCCACAUCUACGAAUUCGAGAGGAUGAAACAAUUUGGAGAAGAUUAGAUCGGAAGAGCACACGU
Kd: 5.6 ± 0.4 nM

B21: target 2 MT 5'PFS GAG 3'PFS AUA (mixed)
RNA 1: CACCCGUGCAAAAUUGCAGGGGUCUAAAACCUUCUCCAAAUUGUUUCAUCCU
RNA 2: GGGAAUGGAUCCACAUCUACGAAUUCGAGAGGAUGAAACAAUUUGGAGAAGAUAAGAUCGGAAGAGCACACGU
Kd: 4.8 ± 0.5 nM

B22: target 2 MT 5'PFS GCC 3'PFS CAC (mixed)
RNA 1: CACCCGUGCAAAAUUGCAGGGGUCUAAAACCUUCUCCAAAUUGUUUCAUCCU
RNA 2: GGGAAUGGAUCCACAUCUACGAAUUCGCCAGGAUGAAACAAUUUGGAGAAGCACAGAUCGGAAGAGCACACGU
Kd: 13 ± 1.7 nM

B23: target 2 MT 5'PFS AUA 3'PFS AGA (mixed)
RNA 1: CACCCGUGCAAAAUUGCAGGGGUCUAAAACCUUCUCCAAAUUGUUUCAUCCU
RNA 2: GGGAAUGGAUCCACAUCUACGAAUUCAUAAGGAUGAAACAAUUUGGAGAAGAGAAGAUCGGAAGAGCACACGU
Kd: 6.1 ± 1.1 nM

B24: target 2 MT 5'PFS GCA 3'PFS CAU (mixed)
RNA 1: CACCCGUGCAAAAUUGCAGGGGUCUAAAACCUUCUCCAAAUUGUUUCAUCCU
RNA 2: GGGAAUGGAUCCACAUCUACGAAUUCGCAAGGAUGAAACAAUUUGGAGAAGCAUAGAUCGGAAGAGCACACGU
Kd: 8.8 ± 1.8 nM

B25: target 2 MT 5'PFS GCC 3'PFS CAG (mixed)
RNA 1: CACCCGUGCAAAAUUGCAGGGGUCUAAAACCUUCUCCAAAUUGUUUCAUCCU
RNA 2: GGGAAUGGAUCCACAUCUACGAAUUCGCCAGGAUGAAACAAUUUGGAGAAGCAGAGAUCGGAAGAGCACACGU
Kd: 9.4 ± 0.8 nM

B26: target 2 MT 5'PFS AGA 3'PFS CUC (mixed)
RNA 1: CACCCGUGCAAAAUUGCAGGGGUCUAAAACCUUCUCCAAAUUGUUUCAUCCU
RNA 2: GGGAAUGGAUCCACAUCUACGAAUUCAGAAGGAUGAAACAAUUUGGAGAAGCUCAGAUCGGAAGAGCACACGU
Kd: 11.7 ± 1.9 nM

B27: target 2 MT 5'PFS GCC 3'PFS CAU (mixed)
RNA 1: CACCCGUGCAAAAUUGCAGGGGUCUAAAACCUUCUCCAAAUUGUUUCAUCCU
RNA 2: GGGAAUGGAUCCACAUCUACGAAUUCGCCAGGAUGAAACAAUUUGGAGAAGCAUAGAUCGGAAGAGCACACGU
Kd: 14 ± 4 nM

B28: target 2 MT 5'PFS GCA 3'PFS CAC (mixed)
RNA 1: CACCCGUGCAAAAUUGCAGGGGUCUAAAACCUUCUCCAAAUUGUUUCAUCCU
RNA 2: GGGAAUGGAUCCACAUCUACGAAUUCGCAAGGAUGAAACAAUUUGGAGAAGCACAGAUCGGAAGAGCACACGU
Kd: 7.5 ± 1 nM
